Numbering of substitutions follows the chain as printed. In names and notes the source's numbering stands. One block for each binder: values may come before it.
How the values were obtained:
[1] = molecular target: T1, human ASIC1 (human, UniProt P78348 1-528); assay: cell-based or functional assay
T1 sequence: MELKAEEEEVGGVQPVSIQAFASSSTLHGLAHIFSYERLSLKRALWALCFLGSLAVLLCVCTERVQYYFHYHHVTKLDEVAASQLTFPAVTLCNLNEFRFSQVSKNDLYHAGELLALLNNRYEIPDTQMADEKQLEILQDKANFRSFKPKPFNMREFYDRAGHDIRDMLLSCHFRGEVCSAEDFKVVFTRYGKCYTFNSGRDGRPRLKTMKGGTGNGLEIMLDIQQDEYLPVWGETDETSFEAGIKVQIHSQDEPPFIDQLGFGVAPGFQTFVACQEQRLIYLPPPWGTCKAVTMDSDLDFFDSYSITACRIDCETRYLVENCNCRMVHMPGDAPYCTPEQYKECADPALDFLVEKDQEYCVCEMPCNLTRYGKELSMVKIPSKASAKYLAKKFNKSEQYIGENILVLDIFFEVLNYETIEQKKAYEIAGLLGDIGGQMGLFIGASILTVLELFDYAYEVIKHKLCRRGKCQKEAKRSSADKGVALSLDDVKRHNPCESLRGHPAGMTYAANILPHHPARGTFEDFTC

[2] = molecular target: T2, mouse ASIC1a (mouse, UniProt Q6NXK8 1-526); assay: cell-based or functional assay
T2 sequence (looked up): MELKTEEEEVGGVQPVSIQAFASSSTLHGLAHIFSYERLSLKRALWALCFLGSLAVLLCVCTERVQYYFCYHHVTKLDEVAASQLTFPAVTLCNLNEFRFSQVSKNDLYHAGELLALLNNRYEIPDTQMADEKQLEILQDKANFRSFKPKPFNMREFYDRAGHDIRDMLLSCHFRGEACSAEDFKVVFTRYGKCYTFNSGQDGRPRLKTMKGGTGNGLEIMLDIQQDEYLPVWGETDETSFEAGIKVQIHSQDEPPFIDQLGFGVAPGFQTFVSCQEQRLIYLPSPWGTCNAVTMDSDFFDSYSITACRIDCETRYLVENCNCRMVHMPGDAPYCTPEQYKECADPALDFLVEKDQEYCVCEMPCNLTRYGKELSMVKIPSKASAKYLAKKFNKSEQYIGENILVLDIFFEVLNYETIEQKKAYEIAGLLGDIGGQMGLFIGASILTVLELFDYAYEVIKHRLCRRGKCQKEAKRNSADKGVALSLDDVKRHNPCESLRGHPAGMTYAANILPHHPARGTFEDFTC

[3] = molecular target: T1, human ASIC1; assay: FACS titration, 3T3/hASIC1 cells
Method: To perform the FACS binding experiments, adherent cells were collected using 1 mM EDTA in PBS, then washed, and re-suspended in cold PBS containing 5% FBS. For each binding experiment, each anti-ASIC1 antibody ([…] or ND7 cells) was added to 250,000 cells in 500 μL of PBS with 5% FBS. After incubation for 20 minutes at room temperature, a secondary antibody which recognizes human Fc (Cat. No. 109-136-098, Jackson ImmunoResearch Laboratories, Inc., West Grove, Pa.) or mouse Fc (Cat. No. 550826, BD Biosciences, San Jose, Calif.) and is conjugated to allophycocyanin, was then added to the cell mixture at a final concentration of 13.3 nM. After incubating for 20 minutes on ice, the cells were washed and resuspended in PBS containing 5% FBS, then sorted and analyzed on a flow cytometer (FACSCalibur, BD Biosciences, San Jose, Calif.) to determine relative binding by the candidate antibodies to the tested cell lines. Histograms of cells stained with anti-ASIC1 antibodies were compared with those of cells stained with secondary antibody alone. Percentage of ASIC1 signal over secondary antibody alone was calculated using FlowJo software (Tree Star, Ashland, Oreg.).

[4] = molecular target: T3, human ASIC3 (human, UniProt Q9UHC3 1-531); assay: FACS, 3T3/hASIC3 cells
T3 construct: whole, on cells; Expressed on 3T3 cells (3T3/hASIC3) or HEK293 cells (HEK/hASIC3-QCells); also called hASIC3
T3 sequence (looked up): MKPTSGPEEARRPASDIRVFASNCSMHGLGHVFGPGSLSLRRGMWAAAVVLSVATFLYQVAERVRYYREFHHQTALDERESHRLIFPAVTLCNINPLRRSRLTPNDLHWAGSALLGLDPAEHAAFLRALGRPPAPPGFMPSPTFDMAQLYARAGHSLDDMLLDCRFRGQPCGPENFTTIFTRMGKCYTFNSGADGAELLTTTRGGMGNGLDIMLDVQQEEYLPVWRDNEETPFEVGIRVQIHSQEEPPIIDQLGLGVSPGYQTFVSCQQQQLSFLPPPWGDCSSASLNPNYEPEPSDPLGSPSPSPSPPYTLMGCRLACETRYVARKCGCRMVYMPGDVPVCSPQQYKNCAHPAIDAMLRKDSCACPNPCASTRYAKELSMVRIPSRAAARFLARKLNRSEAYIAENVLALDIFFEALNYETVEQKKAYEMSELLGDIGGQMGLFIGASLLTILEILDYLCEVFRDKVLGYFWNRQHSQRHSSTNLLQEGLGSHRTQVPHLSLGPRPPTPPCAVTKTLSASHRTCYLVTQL
Source text: (§1) For these experiments, four cell lines were constructed: (a) a mouse fibroblast 3T3 cell line stably transfected to overexpress full length human ASIC3 (3T3/hASIC3; amino acids 1-531 of NCBI accession number NP_{—}004760.1), (b) a 3T3 cell line stably transfected to co-express full length human ASIC1a and human ASIC3 (3T3/hASIC1/3; amino acids 1-528 of NCBI accession number NP_{—}001086.2 and amino acids 1-531 of NCBI accession number NP_{—}004760.1), (c) […] a stably transfected 3T3 cell line expressing the full-length mouse ASIC3 channel (3T3/mASIC3; amino acids 1-530 of NCBI accession number NP_{—}892045.2), and (d) a 3T3 cell line stably transfected to co-express full length mouse ASIC1a and mouse ASIC3 (3T3/mASIC1/3; amino acids 1-526 of NCBI accession number NP_{—}033727 and amino acids 1-530 of NCBI accession number NP_{—}892045.2). Antibody binding was determined using flow cytometry (FACS).
(§2) To perform the FACS binding experiments, adherent cells were collected with cold Millipore Accutase 3-5 minutes, spun and resuspended in ice-cold FACS buffer (PBS, 2% HI-FBS and 0.09% Na-azide). Anti-ASIC1 antibody at final concentrations of 10 nM was added for 20-30 minutes on ice. Cells were washed with 900 μL ice-cold FACS buffer, spun, and resuspended in 100 μL ice-cold FACS buffer. A secondary antibody which recognizes human Fc (Jackson Immuno Research, #109-136-098) and is conjugated to allophycocyanin, was then added to the cell mixture at a final concentration of 2.5 ug/mL. After incubating for 20 minutes on ice, the cells were washed and resuspended in FACS buffer, then sorted and analyzed on a flow cytometer (FACSCanto II, BD Biosciences, San Jose, Calif.) to determine relative binding by the candidate antibodies to the tested cell lines. Histograms of cells stained with anti-ASIC1 antibodies were compared with those of cells stained with secondary antibody alone. Percentage of ASIC1 signal over secondary antibody alone was calculated using FlowJo software (Tree Star, Ashland, Oreg.).

[5] = molecular target: T4, human ASIC1/ASIC3 channels (co-expressed human ASIC1a and human ASIC3) (human, UniProt Q9UHC3 1-531); assay: FACS, 3T3/hASIC1/3 cells, 10 nM antibody
T4 construct: whole, on cells; 3T3 cells co-expressing both subunits; also called 3T3/hASIC1/3; 3T3-hASIC1/ASIC3
T4 sequence 1: T1 sequence
T4 sequence 2: T3 sequence (looked up)
Source text: as §1, §2

[6] = molecular target: T1, human ASIC1; assay: cell-based or functional assay; remark: listed apart in the source
[7] = molecular target: T3, human ASIC3; assay: FACS, 3T3/hASIC3 cells, 10 nM antibody
Source text: as §1, §2

[8] = molecular target: T1, human ASIC1; assay: cell-based or functional assay; remark: listed apart in the source

B1: H3M7118N (antibody, V domains shown)
VH: EVQLLESGGGLVQPGGSLRLSCAASGFTFRNYAMSWVRQAPGKGLEWVSAINGGGDSTYYADSVKGRFTISRDNSKNTLYLQMNSLRAEDTAVYYCAKEEGDWNYVGYGYYYYYGMDVWGQGTTVTVSS
VL: DIQMTQSPSSMSASVGDRVTITCRASQGISSWLAWYQQKPGKAPKLLIYAASSLQSGVPSRFSGSGSGTDFTLTIRSLQPEDFATYYCQQANSFPYTFGQGTKLEIK
notes: Chimeric: human variable, mouse constant domains; H3M prefix marks the Fc, isotype not spelled out
apparent IC50, human ASIC1 current, Q-Patch [1]: ≤ 10 nM
apparent IC50, mouse ASIC1 current, Q-Patch [2]: < 25 nM
EC50 [3]: > 67 nM

B2: H4H6721N2 (antibody, human IgG4, V domains shown)
VH: EVQLLASGGGLVQPGGSLRLSCAASGFTFSSFAMSWVRQAPGKGLEWVSGISGSGVSTYYADSVKGRFTISRDNSKNTLYLQMNSLRAEDTAAYYCAKEAYKWQPWGQGTLVTVSS
VL: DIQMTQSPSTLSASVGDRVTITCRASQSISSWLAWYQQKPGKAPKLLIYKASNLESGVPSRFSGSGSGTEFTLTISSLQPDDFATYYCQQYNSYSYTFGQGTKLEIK
binding result [4]: no binding (tested: 10 nM; gated lower than 1%)
apparent IC50, human ASIC1 current, Q-Patch [1]: < 1 nM
EC50 [3]: 1.7 nM
binding result [5]: binds

B3: H4H7101N (antibody, human IgG4, V domains shown)
VH: B2 VH with P14T, V56G, T110I, L111R
VL: DIQMTQSPSTLSASVGDRVTITCRASQSISSWLAWYQQKPGKAPNLLIYKTSNLESGVPSRFSGSGSGTEFTLTISSLQPDDFATYYCQQYNSYSYTFGQGTKLEIK
binding result [4]: no binding (tested: 10 nM; gated lower than 1%)
binding result [5]: binds

B4: H1M6712N (antibody, mouse IgG1, V domains shown)
VH: QVQLVQSGAEVKKPGASMKVSCKASGYTFTIYDINWVRQATGQGLEWMGWMNPRSGSTGYSQKFQGRVTMTRNTSINTAFMELSSLRSDDTAVYYCVRGQLVLGYWGQGTLVTVSS
VL: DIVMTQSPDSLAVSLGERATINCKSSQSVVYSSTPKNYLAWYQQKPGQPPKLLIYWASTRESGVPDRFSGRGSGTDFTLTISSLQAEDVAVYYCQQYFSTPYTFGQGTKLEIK
EC50 [3]: < 0.1 nM
binding result [5]: binds
FLIPR Dose Curve, pH 5.0 % Block [6]: 10%
FLIPR Dose Curve, pH 5.5 % Block [6]: 64%
FLIPR Dose Curve, pH 5.5 IC50 [6]: 6 nM
binding result [7]: binds
Current inhibition (%) at 100 nM antibody, Q-Patch, pH 6.0 [8]: 0%

B5: H3M6715N (antibody, V domains shown)
VH: EELVLESGGGLVQPGGSLRLSCAASGFMFSTYAMSWVRQAPGKGLEWVSLISGRDGNTYYADSVKGRFTISRDNSRNTLYLQLNSLRAEDTALYYCAKDTAVVPGYGMDVWGQGTTVTVSS
VL: DIQMTQSPATLSASVGDRVTITCRASQTISNWLAWYQQRPGKAPKLLIYKASSLETGVPSRFSGSGSGTEFTLTISSLQPDDFASYYCQQYNSYSWTFGQGTKVEIK
notes: as for B1
binding result [4]: no binding (tested: 10 nM; gated lower than 1%)
EC50 [3]: 0.072 nM
binding result [5]: binds
FLIPR Dose Curve, pH 5.0 % Block [6]: 10%
FLIPR Dose Curve, pH 5.5 % Block [6]: 39%
FLIPR Dose Curve, pH 5.5 IC50 [6]: 0.1 nM
Current inhibition (%) at 100 nM antibody, Q-Patch, pH 6.0 [8]: 30%

Second part, led by results:

EC50 [3]: 0.215 nM
binding result [5]: binds
FLIPR Dose Curve, pH 5.0 % Block [6]: 23%
FLIPR Dose Curve, pH 5.5 % Block [6]: 63%
FLIPR Dose Curve, pH 5.5 IC50 [6]: 0.2 nM
B6: H3M6713N (antibody, V domains shown)
VH: B5 VH with N57S, N74I, Q82H, L93V, M108L
VL: B5 VL
notes: as for B1
binding result [4]: no binding (tested: 10 nM; gated lower than 1%)

EC50 [3]: 0.853 nM
binding result [5]: binds
FLIPR Dose Curve, pH 5.0 % Block [6]: 56%
FLIPR Dose Curve, pH 5.0 IC50 [6]: 1 nM
FLIPR Dose Curve, pH 5.5 % Block [6]: 71%
FLIPR Dose Curve, pH 5.5 IC50 [6]: 0.9 nM
B7: H3M6760N (antibody, V domains shown)
VH: B5 VH with E2D, L3R, T31S, L93V
VL: B5 VL with A9S, T28S, T56S
notes: as for B1
binding result [4]: no binding (tested: 10 nM; gated lower than 1%)

Source: patent US20140056907A1 (Regeneron, published 2014)
